# In patent publication US20260166131A1, “METHOD FOR PROMOTING PATHOLOGICAL TDP-43 PROTEIN DEGRADATION, AND DRUG” (TALENGEN INTERNATIONAL LIMITED, priority 2022, published 2026):
# B1: plasminogen: human plasminogen purified from human donor plasma, in which human Lys-plasminogen and Glu-plasminogen are >98% (protein)
# chain: KVYLSECKTGNGKNYRGTMSKTKNGITCQKWSSTSPHRPRFSPATHPSEGLEENYCRNPDNDPQGPWCYTTDPEKRYDYCDILECEEECMHCSGENYDGKISKTMSGLECQAWDSQSPHAHGYIPSKFPNKNLKKNYCRNPDRELRPWCFTTDPNKRWELCDIPRCTTPPPSSGPTYQCLKGTGENYRGNVAVTVSGHTCQHWSAQTPHTHNRTPENFPCKNLDENYCRNPDGKRAPWCHTTNSQVRWEYCKIPSCDSSPVSTEQLAPTAPPELTPVVQDCYHGDGQSYRGTSSTTTTGKKCQSWSSMTPHRHQKTPENYPNAGLTMNYCRNPDADKGPWCFTTDPSVRWEYCNLKKCSGTEASVVAPPPVVLLPDVETPSEEDCMFGNGKGYRGKRATTVTGTPCQDWAAQEPHRHSIFTPETNPRAGLEKNYCRNPDGDVGGPWCYTTNPRKLYDYCDVPQCAAPSFDCGKPQVEPKKCPGRVVGGCVAHPHSWPWQVSLRTRFGMHFCGGTLISPEWVLTAAHCLEKSPRPSSYKVILGAHQEVNLEPHVQEIEVSRLFLEPTRKDIALLKLSSPAVITDKVIPACLPSPNYVVADRTECFITGWGETQGTFGAGLLKEAQLPVIENKVCNRYEFLNGRVQSTELCAGHLAGGTDSCQGDSGGPLVCFEKDKYILQGVTSWGLGCARPNKPGVYVRVSRFVTWIEGVMRNN
# Experiments:
# [1] = biological target: T1, TDP-43 (Homo sapiens, UniProt Q13148); experiment: Cleavage of TDP-43 protein in brain homogenate of ALS model (SOD1-G93A) mice (Western blot); type: biochemical; settings: SOD1-G93A mouse brain homogenate + recombinant TDP-43, 37° C. 3 h, vs vehicle control group
# T1 construct: purchased Nanjing GenScript Biotechnology Co., Ltd. C134WHE160-2/P5HF001
# Description: Four B6.Cg-Tg (SOD1-G93A) 1Gur/J transgenic male mice (referred to as SOD1-G93A transgenic mice) were sacrificed, and the whole brain was taken out to weigh. 1×PBS was added at 150 mg tissue/mL PBS (Thermo Fisher, pH 7.4; 10010-031) to homogenize at 4° C. (1 min, 3-4 times). After homogenization, the supernatant, i.e., the brain homogenate was taken out to place in a new EP tube.
# Eppendorf (EP) tubes were set as: (1) blank group, (2) blank control group, (3) vehicle control group, and (4) plasminogen group, with 5 parallels in each group. The blank group was added with 21.5 μL of normal saline, 4.6 μL of vehicle solution (10 mM sodium citrate, 2% arginine hydrochloride, 3% mannitol, pH 7.4), and 23.9 μL of mouse brain homogenate; the blank control group was added with 21.5 μL of normal saline, 2.3 μL of plasminogen solution (2 mg/mL), and 23.9 μL of mouse brain homogenate; the vehicle control group was added with 20.5 μL of TDP-43 (Nanjing GenScript Biotechnology Co., Ltd., custom-expressed human TDP-43, C134WHE160-2/P5HF001, 1.05 mg/mL), 4.6 μL of vehicle solution, and 23.9 μL of mouse brain homogenate; the plasminogen group was added with 20.5 μL of TDP-43 (1.05 mg/mL), 2.3 μL of plasminogen solution (2 mg/mL), and 23.9 μL of mouse brain homogenate. After adding the samples of each group, they were incubated at 37° C. for 3 h, and then 50 μL of 0.1% trifluoroacetic acid solution was added to terminate the reaction.
# A 12% gel was prepared according to the SDS-PAGE gel preparation instructions. Each group of samples was mixed with 4× loading buffer (TaKaRa, e2139) at a volume ratio of 3:1, heating at 100° C. for 5 min, cooling and centrifuging for 2 min, and then 20 μL was taken for sample loading. […] After washing 4 times with TBST, the PVDF membrane was placed on a clean imaging plate, Immobilon Western HRP Substrate (MILLIPORE, WBKLS0100) was added for color development, and the membrane was photographed under a biomolecular imager, then performing quantitative analysis by using Image J.
# [2] = system: NSC34 cells; experiment: Plasmin activity in cytoplasm and nucleus of okadaic acid-treated NSC34 cells (enzyme substrate kinetic method, S-2251); type: cell-based; settings: plasminogen 0.5 mg/mL 24 hours, vs vehicle group
# Description: The cells were placed in a carbon dioxide incubator for culture at 37.0° C. and 5% CO2. […] After adding plasminogen for 24 hours, the cells were harvested. […] The supernatant is the extracted cytoplasmic protein, and the supernatant is immediately sucked up into a pre-cooled sample tube for later use. The precipitate is the cell nucleus, and the remaining supernatant was completely aspirated (to avoid contamination by cytoplasmic proteins), then adding 50-100 μL of nuclear protein extraction reagent. The precipitate is completely dispersed by pipette blow or high-speed vortex for 15 seconds (can be extended appropriately), then ice-bathing for 10 minutes, vortexing vigorously at maximum speed for 10 seconds and centrifuging at 12,000-16,000 g for 10 minutes at 4° C. The supernatant was immediately sucked up by pipette into a pre-cooled sample tube; this is the extracted nuclear protein.
# T1 sequence (Q13148 whole entry): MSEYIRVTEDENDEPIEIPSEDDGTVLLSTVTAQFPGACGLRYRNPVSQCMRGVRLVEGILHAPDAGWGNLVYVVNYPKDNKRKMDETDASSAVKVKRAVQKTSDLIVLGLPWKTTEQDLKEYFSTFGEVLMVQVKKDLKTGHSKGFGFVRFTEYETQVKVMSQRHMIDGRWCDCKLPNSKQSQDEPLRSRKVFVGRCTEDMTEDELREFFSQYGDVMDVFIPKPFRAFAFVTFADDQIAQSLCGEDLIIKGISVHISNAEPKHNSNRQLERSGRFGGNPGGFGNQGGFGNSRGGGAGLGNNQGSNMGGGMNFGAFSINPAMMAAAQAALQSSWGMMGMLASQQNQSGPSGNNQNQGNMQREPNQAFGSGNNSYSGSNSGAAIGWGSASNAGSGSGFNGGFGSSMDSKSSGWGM
molecule,measurement,setting,value
B1,amount of TDP-43 monomer,[1],significantly lower
same,amount of high molecular weight TDP-43 protein (HMW),[1],significantly lower
same,amount of low molecular weight TDP-43 fragment (LMW),[1],significantly lower
same,level of plasmin activity in the cytoplasm,[2],significantly higher
same,level of plasmin activity in the nucleus,[2],significantly higher
